{"source": "patent US20200172896", "about": "“EVOLUTION OF BIOACTIVE SEQUENCE-DEFINED SYNTHETIC POLYMERS USING DNA-TEMPLATED POLYMERIZATION” (President and Fellows of Harvard College, published 2020)", "key": {"PCSK9 [1]": {"biological_target": "T1, PCSK9 (Homo sapiens, UniProt Q8NBP7;Q8NBP7 Q8NBP7:31-152,Q8NBP7:153-692)", "T1 sequence (Q8NBP7 31-152, chain 1 of 2)": "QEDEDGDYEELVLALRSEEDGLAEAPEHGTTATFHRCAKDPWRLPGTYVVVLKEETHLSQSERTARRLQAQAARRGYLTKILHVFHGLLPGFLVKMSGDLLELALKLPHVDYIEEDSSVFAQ", "T1 sequence (Q8NBP7 153-692, chain 2 of 2)": "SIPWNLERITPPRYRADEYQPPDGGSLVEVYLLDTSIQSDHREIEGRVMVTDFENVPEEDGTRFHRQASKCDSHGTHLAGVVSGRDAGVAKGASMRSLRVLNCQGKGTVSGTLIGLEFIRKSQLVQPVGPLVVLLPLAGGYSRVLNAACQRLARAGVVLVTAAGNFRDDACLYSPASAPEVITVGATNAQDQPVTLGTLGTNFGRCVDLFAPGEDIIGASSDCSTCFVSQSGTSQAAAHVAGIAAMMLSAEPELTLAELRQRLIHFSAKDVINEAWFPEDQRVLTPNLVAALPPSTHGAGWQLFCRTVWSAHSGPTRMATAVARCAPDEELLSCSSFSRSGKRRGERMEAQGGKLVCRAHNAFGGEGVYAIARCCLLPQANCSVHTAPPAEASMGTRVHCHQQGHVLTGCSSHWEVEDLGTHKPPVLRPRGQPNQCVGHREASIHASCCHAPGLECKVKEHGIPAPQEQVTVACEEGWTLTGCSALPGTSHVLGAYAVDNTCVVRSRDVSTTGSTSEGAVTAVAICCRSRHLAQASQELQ", "experiment": "pulldown; unfunctionalized DNA, no evident binding", "details": "tags: ACROBiosystems PC9-H5223"}, "PCSK9 [2]": {"biological_target": "T1, PCSK9", "experiment": "SPR; 0.9x HBS-EP, salmon sperm DNA 1 mg/ml, 25 C", "details": "tags: ACROBiosystems PC9-H5223; label: 5' dual biotin-iSp18", "procedure": "(§1) All SPR assays were performed at 25° C. on a Biacore X100 or Biacore T200 (GE Healthcare Life Sciences). Binding kinetics between enzymatically synthesized biotinylated HFNAPs and unlabeled recombinant proteins were measured using single-cycle kinetics with the Biotin CAPture kit (GE Life Sciences) using 0.9×HBS-EP buffer (GE Life Sciences) at a flow rate of 30 μL/min. The injected PCSK9 concentration ranged from 10 to 300 nM for PCSK9-A5 and its variants, or from 2 to 60 nM for PCSK9-Evo5 and its variants. The injected IL-6 concentration ranged from 10 to 300 nM.\n(§2) All SPR assays were performed at 25° C. on a Biacore X100 or Biacore T200 (GE Healthcare Life Sciences). […] HBS-EP buffer (GE Life Sciences, BR100188), diluted by MilliQ water to 0.9×, was used as the bulk running buffer. Each experiment consisted of three start-up cycles followed by multiple data collection and blank cycles. […] Afterwards, four ascending concentrations of PCSK9 protein [10, 30, 100, 300 nM protein supplemented with 1 mg/ml salmon sperm DNA (Invitrogen, 15632-011) as nonspecific binding reducer for PCSK9-A5 and its variants; 2, 6, 20, 60 nM protein without salmon sperm DNA for PCSK9-Evo5 and its variants] in 0.9×HBS-EP were injected onto both flow cells in series at 30 μL/min for 150 seconds each, followed by 240 seconds of dissociation. […]"}, "[3]": {"biological_target": "PCSK9 mature, lacking prodomain (Homo sapiens, UniProt Q8NBP7 Q8NBP7:153-692)", "sequence (Q8NBP7 153-692, one chain of several)": "as the sequence (Q8NBP7 153-692, chain 2 of 2) above", "experiment": "SPR; no apparent binding, 2-60 nM protein", "details": "tags: ACROBiosystems PC9-H5226; label: 3' iSp18-dual biotin", "procedure": "All SPR assays were performed at 25° C. on a Biacore X100 or Biacore T200 (GE Healthcare Life Sciences). […] HBS-EP buffer (GE Life Sciences, BR100188), diluted by MilliQ water to 0.9×, was used as the bulk running buffer. Each experiment consisted of three start-up cycles followed by multiple data collection and blank cycles. […] Afterwards, four ascending concentrations of PCSK9 protein [10, 30, 100, 300 nM protein supplemented with 1 mg/ml salmon sperm DNA (Invitrogen, 15632-011) as nonspecific binding reducer for PCSK9-A5 and its variants; 2, 6, 20, 60 nM protein without salmon sperm DNA for PCSK9-Evo5 and its variants] in 0.9×HBS-EP were injected onto both flow cells in series at 30 μL/min for 150 seconds each, followed by 240 seconds of dissociation. Both flow cells were then regenerated with a 3:1 mixture of 8 M guanidinium chloride and 1 M NaOH following manufacturer's instructions. Blank cycles were run similarly except that 0.9×HBS-EP (containing 1 mg/ml salmon sperm DNA when PCSK9-A5 and its variants were assayed) without PCSK9 protein was injected."}, "PCSK9 [4]": {"biological_target": "T1, PCSK9", "experiment": "SPR; 0.9x HBS-EP, 25 C, immobilized HFNAP", "details": "tags: ACROBiosystems PC9-H5223; label: 3' iSp18-dual biotin", "procedure": "as §1, §2"}, "PCSK9 [5]": {"biological_target": "T1, PCSK9", "experiment": "SPR; two-state reaction kinetic model", "details": "tags: ACROBiosystems PC9-H5223; label: 3' iSp18-dual biotin", "procedure": "as §1, §2"}, "[6]": {"biological_target": "PCSK9 (biotinylated Avi-tagged) (UniProt Q8NBP7;Q8NBP7 Q8NBP7:31-152,Q8NBP7:153-692)", "sequence (Q8NBP7 31-152, chain 1 of 2)": "as the sequence (Q8NBP7 31-152, chain 1 of 2) above", "sequence (Q8NBP7 153-692, chain 2 of 2)": "as the sequence (Q8NBP7 153-692, chain 2 of 2) above", "experiment": "SPR; immobilized PCSK9, 0.9x HBS-EP, 25 C", "details": "tags: biotinylated Avi-tag, ACROBiosystems PC9-H82E7", "excerpt": "Biotinylated PCSK9 in 0.9×HBS buffer was immobilized onto the active flow cell to ˜1000 RU. […] Kinetic parameters were fitted to double-blank-subtracted sensograms under a 1:1 binding model using BIAEvaluation software."}, "PCSK9 [7]": {"biological_target": "T1, PCSK9", "experiment": "inhibition; inhibition of 20 nM PCSK9 binding to immobilized LDLR by SPR; HEPES, NaCl, 0.1 mM CaCl2, pH 7.5", "details": "tags: ACROBiosystems PC9-H5223", "description": "Binding of PCSK9 on surface-immobilized LDLR in the presence of various competing agents was measured on a Series S SA chip using 10 mM HEPES, 150 mM NaCl, 0.1 mM CaCl₂, 0.005% Tween-20, pH 7.5 as bulk buffer at a flow rate of 10 μL/min. The injected solutions contained 20 nM PCSK9 and various competing agents ranging from 2 to 200 nM.\nBinding of PCSK9 on surface-immobilized LDLR in the presence of various competing agents was measured on a Series S SA chip. The bulk running buffer was 10 mM HEPES, 150 mM NaCl, 0.1 mM CaCl₂, 0.005% Tween-20, pH 7.5. […] The surface was regenerated using two consecutive one-minute injections of 50 mM HCl. Blank cycles were run similarly except that running buffer containing 1 mg/ml non-specific binding reducer without protein was injected. Response levels at the end of the injection periods from double-blank-subtracted sensograms were recorded."}, "PCSK9 [8]": {"biological_target": "T1, PCSK9", "experiment": "SPR; 0.9x HBS-EP, 25 C", "details": "tags: ACROBiosystems PC9-H5223; label: biotin", "procedure": "as §1, §2"}}}
{"binder": "PCSK9A4-DNA (ssDNA) DNA: CGAATCAGATTGGACCAGCCCCAATGCTTTTCGTTTCTATCACGTCTTTAGCGGTACCTATTCGAGTCCAGATGTAGGTAG", "values": [{"measurement": "binding result", "setting": "PCSK9 [1]", "value": "no binding"}]}
{"binder": "PCSK9-A5 (ssDNA, HFNAP, C5 side chain on the 5' pyrimidine of each of the 15 codons in the variable region (19-63): CCA cyclopropyl, CGT/CTT/CTG cyclopentyl, TAC imidazole, TGA/TGC primary alcohol, TTC allylamine, TTT phenol, CCC cyclopropyl, CGG/CAC isopentyl) DNA: CGAATCAGATTGGACCAGCCACGTTACTGATTCTTCTACCGTTTTTGCCCCCGGCACCTTCTGGAGTCCAGATGTAGGTAG", "values": [{"measurement": "Kd", "setting": "PCSK9 [2]", "value": 98, "unit": "nM"}]}
{"binder": "TGCTACCGTTGTTTACCCTGCCACCTTCTGGAGTCCAGATGTAGGTAG (ssDNA, HFNAP, C5 side chain on 5' pyrimidine of codons TGC primary alcohol, TAC imidazole, CGT cyclopentyl, TGT phenol, TTA allylamine, CCC cyclopropyl, TGC primary alcohol, CAC isopentyl, CTT cyclopentyl, CTG cyclopentyl)", "note": "[PCSK9-Evo5]", "values": [{"measurement": "binding result", "setting": "[3]", "value": "no binding"}, {"measurement": "Kd", "setting": "PCSK9 [4]", "value": 3, "unit": "nM"}]}
{"binder": "TGCTACCGTTGTTTACCCTGCCACCTTCTGGAGTCCAGATGTAGGTAG (ssDNA, as PCSK9-Evo5 except CAC unmodified [side chains as PCSK9-Evo5 except CAC codon (nt 22-24) unmodified (isopentyl removed); base sequence unchanged])", "note": "[PCSK9-Evo5 CAC delta side chain]", "values": [{"measurement": "Kd", "setting": "PCSK9 [5]", "value": "~420", "unit": "nM"}]}
{"binder": "TGCTACCGTTGTTTACCCTGCCACCTTCTGGAGTCCAGATGTAGGTAG (ssDNA, side chains as PCSK9-Evo5, 3' idT)", "note": "[PCSK9-Evo5-syn]", "values": [{"measurement": "Kd", "setting": "[6]", "value": 6.8, "unit": "nM"}, {"measurement": "IC50", "setting": "PCSK9 [7]", "value": "~9", "unit": "nM"}]}
{"binder": "TTCTACCGTTTTTGCCCCCGGCACCTTCTGGAGTCCAGATGTAGGTAG (ssDNA, HFNAP side chains as PCSK9-A5)", "note": "[PCSK9-A5Trunc]", "values": [{"measurement": "Kd", "setting": "PCSK9 [8]", "value": 68, "unit": "nM"}]}
{"binder": "TGCTACCGTTGTTTACCCTGCCACCTTCTGGAGTCCAGATGTAGGTAG (ssDNA, only three side chains: phenol at position 9, isopentyl at position 21, cyclopentyl at position 24 (so in the source); rest unfunctionalized DNA [phenol at 9, isopentyl at 21, cyclopentyl at 24 (positions as printed); all other side chains removed; base sequence unchanged])", "note": "[PCSK9-Evo5 3 side chains]", "values": [{"measurement": "Kd", "setting": "PCSK9 [8]", "value": 3.7, "unit": "nM"}]}
{"binder": "PCSK9A2-DNA (ssDNA) DNA: CGAATCAGATTGGACCAGCAACAATGATTCTTCTACCGTTTTTGCCCTCACCTTCTGCGCTGAGAGTCCAGATGTAGGTAG", "values": [{"measurement": "binding result", "setting": "PCSK9 [1]", "value": "no binding"}]}
{"binder": "PCSK9A6-DNA (ssDNA) DNA: CGAATCAGATTGGACCAGTTTCAACCTCTTCTGCCTTCTCCACGGCTCCTTCTGCGTTGTTCCGAGTCCAGATGTAGGTAG", "values": [{"measurement": "binding result", "setting": "PCSK9 [1]", "value": "no binding"}]}
{"binder": "PCSK9A7-DNA (ssDNA) DNA: CGAATCAGATTGGACCAGTCTTCCCTATTCCTCTACCGTTTGTTCTCTTACTTTCACCTTCTGGAGTCCAGATGTAGGTAG", "values": [{"measurement": "binding result", "setting": "PCSK9 [1]", "value": "no binding"}]}
{"binder": "PCSK9A1-DNA (ssDNA) DNA: CGAATCAGATTGGACCAGCCACTATATTCTCTCTCCTACCGTTTGCCTTTGCATCACCTTCTGGAGTCCAGATGTAGGTAG", "values": [{"measurement": "binding result", "setting": "PCSK9 [1]", "value": "no binding"}]}
{"binder": "PCSK9A3-DNA (ssDNA) DNA: CGAATCAGATTGGACCAGTCTCTACAACCTCTTTCATGTCTTTAGCACTACTTATCCTGATCAGAGTCCAGATGTAGGTAG", "values": [{"measurement": "binding result", "setting": "PCSK9 [1]", "value": "no binding"}]}
